Measured values published in publication PMC12591035, “Bni5 regulates and coordinates septin architecture and myosin-II functions at the cell division site” (The Journal of Cell Biology, 2025).

T1: His-SUMO-Elm1(421-640) (S. cerevisiae, UniProt P32801 421-640)
T1 construct: Elm1 kinase, S. cerevisiae, residues 421-640 (C-terminal non-kinase domain); Cloned into pET-His6-Sumo-TEV-LIC (Addgene #29659); also called His6-Sumo-Elm1-C; pET-His6-Sumo-Elm1(421-640); source: E. coli Rosetta DE3, purified (His-tag resin, eluted with imidazole); not shown: His6, N-terminal, kept; SUMO, N-terminal, kept
T1 sequence (looked up): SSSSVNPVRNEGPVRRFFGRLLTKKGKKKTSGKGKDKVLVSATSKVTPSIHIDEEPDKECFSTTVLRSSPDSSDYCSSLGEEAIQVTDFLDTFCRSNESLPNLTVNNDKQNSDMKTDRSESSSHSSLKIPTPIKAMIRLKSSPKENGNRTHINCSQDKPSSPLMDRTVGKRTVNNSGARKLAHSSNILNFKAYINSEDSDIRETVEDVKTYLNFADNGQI


Tests used:
Conditions in all cases: both partners purified
[1] = biological target: T2, 4-septin complexes/filaments (Cdc11-Cdc12[His6]-Cdc3-Cdc10-Cdc10-Cdc3-Cdc12[His6]-Cdc11) (S. cerevisiae, UniProt P32458 1-415; P32468 1-407; P32457 1-520; P25342 1-322); assay: co-sedimentation; 1.5 μg eluted GST fusion with 1.5 μg concentrated 4-septin or 5-septin complexes/filaments; 50 mM NaCl, 2 mM MgCl2, 15 mM imidazole, 12% glycerol, 50 mM Tris-HCl pH 7.5; 1 h at room temperature; 100,000 x g for 1 h at 4°C; pellet on Coomassie gel and anti-GST blot
T2 construct: Cdc11, S. cerevisiae septin, terminal subunit of the octamer; Cdc12, S. cerevisiae septin; Cdc3, S. cerevisiae septin; Cdc10, S. cerevisiae septin, core subunit; Octamers polymerised into filaments; copies are those of one octamer; The plasmids are from Versele et al., 2004; also called septin filaments made of Cdc11-capped octamers (four septins); four-septin complexes; source: E. coli …
T2 sequence (P32458 whole entry, chain 1 of 4, the tested form may be a part): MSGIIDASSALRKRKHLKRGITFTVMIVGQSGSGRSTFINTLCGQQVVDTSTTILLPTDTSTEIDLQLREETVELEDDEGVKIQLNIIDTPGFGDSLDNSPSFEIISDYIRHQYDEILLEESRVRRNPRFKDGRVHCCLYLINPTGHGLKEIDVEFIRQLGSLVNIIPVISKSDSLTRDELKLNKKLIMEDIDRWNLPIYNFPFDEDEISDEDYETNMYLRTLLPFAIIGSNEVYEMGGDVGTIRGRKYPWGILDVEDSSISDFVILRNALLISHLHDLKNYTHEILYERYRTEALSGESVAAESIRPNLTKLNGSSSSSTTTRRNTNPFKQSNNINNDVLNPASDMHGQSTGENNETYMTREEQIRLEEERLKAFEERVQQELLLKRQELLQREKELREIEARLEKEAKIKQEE
T2 sequence (P32468 whole entry, chain 2 of 4, the tested form may be a part): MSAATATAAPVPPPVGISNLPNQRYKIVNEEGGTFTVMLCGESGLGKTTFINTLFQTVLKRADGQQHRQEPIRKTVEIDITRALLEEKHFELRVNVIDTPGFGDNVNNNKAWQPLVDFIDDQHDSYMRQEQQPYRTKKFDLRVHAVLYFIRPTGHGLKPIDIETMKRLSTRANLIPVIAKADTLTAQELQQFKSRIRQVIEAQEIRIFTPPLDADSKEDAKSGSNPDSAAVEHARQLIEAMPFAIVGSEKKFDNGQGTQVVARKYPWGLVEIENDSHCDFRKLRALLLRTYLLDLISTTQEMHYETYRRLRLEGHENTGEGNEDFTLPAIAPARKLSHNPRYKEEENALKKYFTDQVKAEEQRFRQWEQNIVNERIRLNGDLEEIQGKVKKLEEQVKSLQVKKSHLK
T2 sequence (P32457 whole entry, chain 3 of 4, the tested form may be a part): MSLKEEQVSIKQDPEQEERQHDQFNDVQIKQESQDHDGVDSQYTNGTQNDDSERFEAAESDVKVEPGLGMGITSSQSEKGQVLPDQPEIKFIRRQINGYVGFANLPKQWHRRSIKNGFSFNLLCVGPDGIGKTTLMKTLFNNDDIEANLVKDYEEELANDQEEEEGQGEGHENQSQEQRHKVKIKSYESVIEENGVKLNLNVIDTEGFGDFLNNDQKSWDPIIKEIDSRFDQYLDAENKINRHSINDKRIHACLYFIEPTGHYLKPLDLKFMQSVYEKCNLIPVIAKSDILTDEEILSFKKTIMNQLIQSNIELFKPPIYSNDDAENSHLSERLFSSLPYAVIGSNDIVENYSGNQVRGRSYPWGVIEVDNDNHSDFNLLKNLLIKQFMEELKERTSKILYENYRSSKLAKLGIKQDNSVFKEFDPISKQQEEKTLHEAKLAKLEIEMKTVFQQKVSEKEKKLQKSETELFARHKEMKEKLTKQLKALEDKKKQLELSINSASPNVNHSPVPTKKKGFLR
T2 sequence (P25342 whole entry, chain 4 of 4, the tested form may be a part): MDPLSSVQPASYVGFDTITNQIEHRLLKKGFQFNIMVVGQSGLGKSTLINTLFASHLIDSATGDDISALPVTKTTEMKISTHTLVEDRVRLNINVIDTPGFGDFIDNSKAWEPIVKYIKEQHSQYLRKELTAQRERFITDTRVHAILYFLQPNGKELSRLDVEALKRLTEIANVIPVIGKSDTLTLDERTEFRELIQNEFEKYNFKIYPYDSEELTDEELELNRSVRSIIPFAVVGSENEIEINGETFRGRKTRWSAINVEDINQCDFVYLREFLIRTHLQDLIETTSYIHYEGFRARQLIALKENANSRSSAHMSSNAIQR

[2] = biological target: T3, 5-septin complexes/filaments (a mixture of Cdc11-Cdc12[His6]-Cdc3-Cdc10-Cdc10-Cdc3-Cdc12[His6]-Cdc11 and … (S. cerevisiae, UniProt P32458 1-415; Q07657 1-551; P32468 1-407; P32457 1-520; P25342 1-322); assay: as above
T3 construct: Cdc11, S. cerevisiae septin, terminal subunit of the Cdc11-capped octamers; Shs1, S. cerevisiae septin, terminal subunit of the Shs1-capped octamers; Cdc12, S. cerevisiae septin; Cdc3, S. cerevisiae septin; Cdc10, S. cerevisiae septin, core subunit; A mixture of two kinds of octamer, each capped by two copies of either Cdc11 or Shs1; polymerised into filaments; also called septin filaments made …

His-SUMO-Elm1(421-640) = biological target: T1, His-SUMO-Elm1(421-640); assay: pull-down; 3.5 μg GST fusion on glutathione resin with 3.5 μg His6-Sumo-Elm1-C or MBP-Myo1-mTD1; 20 mM MOPS pH 7.0, 1 mM EGTA, 150 mM NaCl, 1 mM DTT, 0.1% NP-40; 1 h; five washes; Coomassie gel and anti-6xHis or anti-MBP blot

Binder	binding result [1]	binding result [2]	binding result (His-SUMO-Elm1(421-640))
GST-Bni5-Ext-HR2 (GST-Bni5(306-393)) (domain or fragment, S. cerevisiae, UniProt P53890 306-393, looked up, Bni5, S. cerevisiae, residues 306-393 (Ext plus helical region HR2); also called GST-Ext-HR2; pGEX-4T-1-Bni5(306-393); source: E. coli Rosetta DE3, purified (Glutathione Sepharose 4B); kept on the resin for pull-downs, eluted with glutathione for the septin filament assay; not shown: GST, N-terminal, kept) QKKMANFETRRPTNPFRVISVSSNSNSRNGSRKSSLNKYDSPVSSPITSASELGSIAKLEKRHDYLSMKCIKLQKEIDYLNKMNAQGS	binds	binds	
GST-Bni5-Ext-HR2-HR3 (GST-Bni5(306-448)) (domain or fragment, S. cerevisiae, UniProt P53890 306-448, looked up, Bni5, S. cerevisiae, residues 306-448 (Ext, HR2 and HR3); also called GST-Ext-HR2-HR3; pGEX-4T-1-Bni5(306-448); source: E. coli Rosetta DE3, purified (Glutathione Sepharose 4B); kept on the resin for pull-downs, eluted with glutathione for the septin filament assay; not shown: GST, N-terminal, kept) QKKMANFETRRPTNPFRVISVSSNSNSRNGSRKSSLNKYDSPVSSPITSASELGSIAKLEKRHDYLSMKCIKLQKEIDYLNKMNAQGSLSMEDGKRLHRAVVKLQEYLDKKTKEKYEVGVLLSRHLRKQIDRGENGQFWIGTK	binds	binds	binds
